Experimental data taken from US10562947B2, “Compositions and methods for preventing or treating diseases, conditions or processes characterized by aberrant fibroblast proliferation and extracellular matrix deposition” (MOERAE MATRIX, INC., priority 2011, dated 2020).
Where a SMILES comes first, the peptide text is derived from it.

What was measured:
Experiment in all cases: Kinase Profiling Assay
Assay type in all cases: biochemical
[1] = molecular target: MAPKAP-K3(h) (Homo sapiens, UniProt Q16644); settings: for MAPKAP-K3(h) % activity: 100 μM peptide
How it was run: (§1)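 First, MK2 inhibitor peptides were applied to a panel of 266 human kinases; then each kinase's activity was measured in duplicate to assess off-target inhibition.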

[2] = molecular target: Arg(h) (Homo sapiens, UniProt P42684); settings: 100 μM peptide
How it was run: as §1

[3] = molecular target: T1, DCAMKL2(h) (Homo sapiens, UniProt Q8N568); settings: 100 μM peptide
T1 sequence (Q8N568 1-766): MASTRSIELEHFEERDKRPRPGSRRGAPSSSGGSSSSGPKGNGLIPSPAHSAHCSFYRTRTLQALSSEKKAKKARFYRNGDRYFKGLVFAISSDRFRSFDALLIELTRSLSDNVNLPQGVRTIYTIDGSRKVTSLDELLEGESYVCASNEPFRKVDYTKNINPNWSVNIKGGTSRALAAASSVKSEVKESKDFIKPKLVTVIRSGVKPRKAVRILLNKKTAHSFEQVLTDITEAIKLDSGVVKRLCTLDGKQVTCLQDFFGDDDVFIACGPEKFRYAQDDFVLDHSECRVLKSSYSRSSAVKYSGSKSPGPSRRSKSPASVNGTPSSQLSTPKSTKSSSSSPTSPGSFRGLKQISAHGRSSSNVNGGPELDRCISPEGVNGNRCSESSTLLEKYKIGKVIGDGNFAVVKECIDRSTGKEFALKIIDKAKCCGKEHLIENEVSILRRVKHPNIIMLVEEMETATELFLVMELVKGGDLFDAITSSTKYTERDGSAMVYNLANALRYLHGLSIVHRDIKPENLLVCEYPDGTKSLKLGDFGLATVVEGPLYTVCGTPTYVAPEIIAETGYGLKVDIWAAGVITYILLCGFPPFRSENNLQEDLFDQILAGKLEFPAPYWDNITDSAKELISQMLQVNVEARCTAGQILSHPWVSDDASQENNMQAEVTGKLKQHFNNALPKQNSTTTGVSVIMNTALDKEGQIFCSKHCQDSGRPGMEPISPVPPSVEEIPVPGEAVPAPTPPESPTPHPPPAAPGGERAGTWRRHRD
How it was run: as §1

[4] = molecular target: EphA2(h) (Homo sapiens, UniProt P29317); settings: 100 μM peptide
How it was run: as §1

[5] = molecular target: EphA4(h) (Homo sapiens, UniProt P54764); settings: 100 μM peptide
How it was run: as §1

[6] = molecular target: T2, EphB4(h) (Homo sapiens, UniProt P54760); settings: 100 μM peptide
T2 sequence (P54760 16-987): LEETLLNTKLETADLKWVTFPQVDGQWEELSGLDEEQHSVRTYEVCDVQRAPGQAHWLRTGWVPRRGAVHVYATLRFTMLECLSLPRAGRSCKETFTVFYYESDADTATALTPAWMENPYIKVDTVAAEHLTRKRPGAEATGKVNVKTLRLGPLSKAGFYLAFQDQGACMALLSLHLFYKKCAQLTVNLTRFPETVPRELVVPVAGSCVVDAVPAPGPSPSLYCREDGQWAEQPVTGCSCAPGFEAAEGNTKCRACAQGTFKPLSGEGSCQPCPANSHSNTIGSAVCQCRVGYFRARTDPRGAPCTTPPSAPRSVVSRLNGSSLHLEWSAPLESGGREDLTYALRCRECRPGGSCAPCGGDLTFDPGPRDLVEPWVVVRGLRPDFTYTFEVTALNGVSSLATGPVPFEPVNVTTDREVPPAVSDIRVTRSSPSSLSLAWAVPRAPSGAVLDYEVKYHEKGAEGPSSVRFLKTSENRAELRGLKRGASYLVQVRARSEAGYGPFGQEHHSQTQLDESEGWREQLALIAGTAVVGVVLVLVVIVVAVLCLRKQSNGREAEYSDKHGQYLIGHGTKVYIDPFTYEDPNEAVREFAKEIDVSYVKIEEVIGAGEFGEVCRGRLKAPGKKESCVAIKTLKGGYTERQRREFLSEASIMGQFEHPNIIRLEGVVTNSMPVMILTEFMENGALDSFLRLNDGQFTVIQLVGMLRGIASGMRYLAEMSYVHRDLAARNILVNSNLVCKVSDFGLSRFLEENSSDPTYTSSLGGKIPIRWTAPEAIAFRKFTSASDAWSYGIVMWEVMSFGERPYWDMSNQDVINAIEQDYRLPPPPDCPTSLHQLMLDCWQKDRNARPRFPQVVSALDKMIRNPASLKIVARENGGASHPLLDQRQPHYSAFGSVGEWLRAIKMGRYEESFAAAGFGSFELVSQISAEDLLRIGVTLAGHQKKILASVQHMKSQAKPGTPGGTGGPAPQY
How it was run: as §1

[7] = molecular target: Met(M1268T)(h) (Homo sapiens, UniProt P08581, M1250T); settings: 100 μM peptide
How it was run: as §1

[8] = molecular target: NEK6(h) (Homo sapiens, UniProt Q9HC98); settings: 100 μM peptide
How it was run: as §1

[9] = molecular target: PAK2(h) (Homo sapiens, UniProt Q13177); settings: 100 μM peptide
How it was run: as §1

[10] = molecular target: PAK5(h) (Homo sapiens, UniProt Q9P286); settings: 100 μM peptide
How it was run: as §1

[11] = molecular target: Rsk4(h) (Homo sapiens, UniProt Q9UK32); settings: 100 μM peptide
How it was run: as §1

[12] = molecular target: VRK2(h) (Homo sapiens, UniProt Q86Y07); settings: 100 μM peptide
How it was run: as §1

[13] = molecular target: cSRC(h) (Homo sapiens, UniProt P12931); settings: 100 μM peptide
How it was run: as §1

NEK6(h), sequence (Q9HC98 whole entry): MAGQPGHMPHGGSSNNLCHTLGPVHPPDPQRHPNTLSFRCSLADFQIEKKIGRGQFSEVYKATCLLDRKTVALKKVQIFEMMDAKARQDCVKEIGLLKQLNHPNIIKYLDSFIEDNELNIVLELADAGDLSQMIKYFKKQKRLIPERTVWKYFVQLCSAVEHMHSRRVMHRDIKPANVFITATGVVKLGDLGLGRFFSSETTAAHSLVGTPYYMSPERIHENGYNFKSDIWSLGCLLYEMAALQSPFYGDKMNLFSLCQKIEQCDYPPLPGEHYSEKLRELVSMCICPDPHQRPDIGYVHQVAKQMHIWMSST
Rsk4(h), sequence (Q9UK32 whole entry): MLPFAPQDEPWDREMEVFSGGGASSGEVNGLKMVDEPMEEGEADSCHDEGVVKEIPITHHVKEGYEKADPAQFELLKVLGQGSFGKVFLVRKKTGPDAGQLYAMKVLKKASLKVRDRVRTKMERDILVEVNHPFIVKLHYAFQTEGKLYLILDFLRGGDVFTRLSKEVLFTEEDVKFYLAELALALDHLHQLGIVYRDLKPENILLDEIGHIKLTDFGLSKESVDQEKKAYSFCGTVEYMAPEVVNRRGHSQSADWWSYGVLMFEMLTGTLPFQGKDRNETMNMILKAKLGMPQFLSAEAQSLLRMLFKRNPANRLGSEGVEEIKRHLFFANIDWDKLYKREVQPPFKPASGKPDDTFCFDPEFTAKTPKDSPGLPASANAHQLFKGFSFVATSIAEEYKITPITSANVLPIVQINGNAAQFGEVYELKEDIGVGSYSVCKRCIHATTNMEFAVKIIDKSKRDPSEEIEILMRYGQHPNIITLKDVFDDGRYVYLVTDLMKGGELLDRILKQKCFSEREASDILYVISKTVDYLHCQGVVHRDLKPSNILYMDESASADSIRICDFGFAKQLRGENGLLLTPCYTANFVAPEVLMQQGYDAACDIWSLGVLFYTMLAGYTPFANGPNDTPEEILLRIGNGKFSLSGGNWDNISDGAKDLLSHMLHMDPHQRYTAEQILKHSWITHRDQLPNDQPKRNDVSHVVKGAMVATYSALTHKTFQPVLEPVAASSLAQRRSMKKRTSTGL
EphA4(h), sequence (P54764 20-986): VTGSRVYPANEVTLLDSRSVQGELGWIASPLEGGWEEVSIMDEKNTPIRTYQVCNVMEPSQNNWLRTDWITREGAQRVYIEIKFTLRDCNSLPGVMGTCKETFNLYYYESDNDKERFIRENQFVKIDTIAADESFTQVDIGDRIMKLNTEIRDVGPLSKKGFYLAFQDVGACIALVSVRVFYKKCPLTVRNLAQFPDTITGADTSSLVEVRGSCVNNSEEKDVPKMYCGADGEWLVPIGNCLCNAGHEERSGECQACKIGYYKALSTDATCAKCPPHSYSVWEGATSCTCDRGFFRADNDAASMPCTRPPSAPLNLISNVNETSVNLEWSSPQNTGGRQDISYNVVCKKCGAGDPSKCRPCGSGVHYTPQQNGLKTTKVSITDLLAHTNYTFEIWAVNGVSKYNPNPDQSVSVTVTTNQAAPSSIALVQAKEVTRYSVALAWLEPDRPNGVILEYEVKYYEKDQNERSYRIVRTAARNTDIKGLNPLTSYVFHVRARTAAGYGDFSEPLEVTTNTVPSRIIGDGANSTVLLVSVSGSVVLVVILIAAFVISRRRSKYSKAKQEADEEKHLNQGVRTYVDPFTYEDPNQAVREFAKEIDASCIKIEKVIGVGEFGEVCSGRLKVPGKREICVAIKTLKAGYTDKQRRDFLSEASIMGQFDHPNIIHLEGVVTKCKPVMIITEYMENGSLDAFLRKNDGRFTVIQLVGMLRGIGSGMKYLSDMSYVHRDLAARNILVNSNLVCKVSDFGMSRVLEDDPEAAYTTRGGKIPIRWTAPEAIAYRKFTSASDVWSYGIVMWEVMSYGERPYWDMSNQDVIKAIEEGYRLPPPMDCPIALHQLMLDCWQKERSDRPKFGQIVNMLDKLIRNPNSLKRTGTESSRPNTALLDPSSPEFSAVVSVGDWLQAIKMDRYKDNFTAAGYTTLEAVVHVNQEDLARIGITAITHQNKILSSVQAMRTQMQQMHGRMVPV
Arg(h), sequence (P42684 whole entry): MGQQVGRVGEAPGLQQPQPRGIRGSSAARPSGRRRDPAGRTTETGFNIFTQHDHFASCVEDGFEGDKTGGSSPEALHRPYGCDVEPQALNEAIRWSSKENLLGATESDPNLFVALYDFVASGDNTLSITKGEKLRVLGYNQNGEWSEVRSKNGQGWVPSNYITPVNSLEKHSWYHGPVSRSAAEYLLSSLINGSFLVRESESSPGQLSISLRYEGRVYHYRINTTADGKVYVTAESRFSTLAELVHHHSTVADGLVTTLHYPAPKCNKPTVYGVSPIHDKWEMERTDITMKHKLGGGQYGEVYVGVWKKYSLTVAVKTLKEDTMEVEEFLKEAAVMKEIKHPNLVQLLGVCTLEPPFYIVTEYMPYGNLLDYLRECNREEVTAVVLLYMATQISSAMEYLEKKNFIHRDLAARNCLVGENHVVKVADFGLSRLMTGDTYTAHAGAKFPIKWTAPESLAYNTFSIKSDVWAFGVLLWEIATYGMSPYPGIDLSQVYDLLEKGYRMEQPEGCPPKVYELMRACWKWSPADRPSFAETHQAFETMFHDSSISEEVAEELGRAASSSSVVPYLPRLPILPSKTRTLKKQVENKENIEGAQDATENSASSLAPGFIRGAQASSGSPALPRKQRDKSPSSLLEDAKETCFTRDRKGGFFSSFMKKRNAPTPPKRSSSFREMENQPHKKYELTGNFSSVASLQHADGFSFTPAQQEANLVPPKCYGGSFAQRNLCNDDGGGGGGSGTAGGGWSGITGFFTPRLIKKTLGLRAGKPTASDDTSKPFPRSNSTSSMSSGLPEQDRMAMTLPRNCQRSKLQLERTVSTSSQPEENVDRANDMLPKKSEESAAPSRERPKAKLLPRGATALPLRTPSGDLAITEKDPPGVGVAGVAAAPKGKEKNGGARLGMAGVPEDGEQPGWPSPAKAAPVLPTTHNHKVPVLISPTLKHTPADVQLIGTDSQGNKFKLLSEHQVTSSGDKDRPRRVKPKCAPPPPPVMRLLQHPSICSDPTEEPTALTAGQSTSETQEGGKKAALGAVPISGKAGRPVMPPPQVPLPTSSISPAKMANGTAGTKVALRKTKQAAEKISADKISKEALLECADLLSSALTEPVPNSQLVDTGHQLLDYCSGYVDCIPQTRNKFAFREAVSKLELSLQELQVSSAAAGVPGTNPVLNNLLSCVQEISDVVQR
VRK2(h), sequence (Q86Y07 whole entry): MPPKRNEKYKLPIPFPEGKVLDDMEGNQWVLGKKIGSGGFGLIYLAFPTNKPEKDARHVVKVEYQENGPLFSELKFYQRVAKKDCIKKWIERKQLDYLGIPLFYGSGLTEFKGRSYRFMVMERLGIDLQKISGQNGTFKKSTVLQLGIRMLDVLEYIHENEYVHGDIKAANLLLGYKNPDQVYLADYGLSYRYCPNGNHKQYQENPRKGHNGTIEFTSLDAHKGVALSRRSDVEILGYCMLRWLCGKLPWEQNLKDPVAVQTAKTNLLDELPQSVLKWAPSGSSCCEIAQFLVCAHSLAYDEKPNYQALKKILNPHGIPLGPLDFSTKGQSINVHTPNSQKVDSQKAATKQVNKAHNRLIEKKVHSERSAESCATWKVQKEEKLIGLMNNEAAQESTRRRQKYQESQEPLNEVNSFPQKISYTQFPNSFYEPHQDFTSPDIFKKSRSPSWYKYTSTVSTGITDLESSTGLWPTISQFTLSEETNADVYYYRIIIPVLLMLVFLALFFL
PAK2(h), sequence (Q13177 whole entry): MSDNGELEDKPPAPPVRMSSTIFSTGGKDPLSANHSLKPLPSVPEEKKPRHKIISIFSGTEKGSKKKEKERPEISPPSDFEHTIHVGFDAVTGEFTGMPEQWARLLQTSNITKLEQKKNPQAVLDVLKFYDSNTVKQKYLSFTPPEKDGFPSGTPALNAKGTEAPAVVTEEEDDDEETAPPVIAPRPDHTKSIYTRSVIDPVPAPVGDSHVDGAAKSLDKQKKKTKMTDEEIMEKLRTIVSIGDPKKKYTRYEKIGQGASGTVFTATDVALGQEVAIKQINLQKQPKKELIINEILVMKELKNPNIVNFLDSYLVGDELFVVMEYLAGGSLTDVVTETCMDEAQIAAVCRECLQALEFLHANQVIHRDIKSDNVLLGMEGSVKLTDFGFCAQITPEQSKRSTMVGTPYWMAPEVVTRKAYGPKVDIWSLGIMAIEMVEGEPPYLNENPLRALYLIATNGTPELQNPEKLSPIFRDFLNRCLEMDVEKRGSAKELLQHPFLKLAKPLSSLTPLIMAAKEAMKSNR
MAPKAP-K3(h), sequence (Q16644 whole entry): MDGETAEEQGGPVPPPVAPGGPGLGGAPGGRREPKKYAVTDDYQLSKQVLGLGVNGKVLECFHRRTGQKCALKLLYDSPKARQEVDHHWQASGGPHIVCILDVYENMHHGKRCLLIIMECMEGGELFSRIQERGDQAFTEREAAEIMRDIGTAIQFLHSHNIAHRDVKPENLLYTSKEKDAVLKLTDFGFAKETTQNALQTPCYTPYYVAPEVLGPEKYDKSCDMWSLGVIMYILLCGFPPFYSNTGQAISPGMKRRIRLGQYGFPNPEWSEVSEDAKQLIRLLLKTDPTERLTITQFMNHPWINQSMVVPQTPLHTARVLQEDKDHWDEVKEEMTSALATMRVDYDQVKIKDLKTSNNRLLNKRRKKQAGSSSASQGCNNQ

Compound | inhibition at 100 µM ([1]; read-out: inhibition of kinase activity of MK3) [%] | Arg(h) % activity [2] [%] | DCAMKL2(h) % activity [3] [%] | EphA2(h) % activity [4] [%] | EphA4(h) % activity [5] [%] | EphB4(h) % activity [6] [%] | MAPKAP-K3(h) % activity [1] [%] | Met(M1268T)(h) % activity [7] [%] | NEK6(h) % activity [8] [%] | PAK2(h) % activity [9] [%] | PAK5(h) % activity [10] [%] | Rsk4(h) % activity [11] [%] | VRK2(h) % activity [12] [%] | cSRC(h) % activity [13] [%]
CC(C)C[C@H](NC(=O)[C@H](C)NC(=O)[C@H](CCCCN)NC(=O)[C@H](C)NC(=O)[C@H](CCCNC(=N)N)NC(=O)[C@H](C)NC(=O)[C@H](CCC(N)=O)NC(=O)[C@H](CCCNC(=N)N)NC(=O)[C@H](C)NC(=O)[C@H](C)NC(=O)[C@H](C)NC(=O)[C@H](CCCNC(=N)N)NC(=O)[C@H](C)NC(=O)[C@@H](N)Cc1ccc(O)cc1)C(=O)N[C@@H](C)C(=O)N[C@@H](CCCNC(=N)N)C(=O)N[C@@H](CCC(N)=O)C(=O)N[C@@H](CC(C)C)C(=O)NCC(=O)N[C@H](C(=O)N[C@@H](C)C(=O)N[C@@H](C)C(=O)O)C(C)C [MMI-0100] (H-YARAAARQARAKALARQLGVAA-OH; N-terminus and C-terminus assumed) | > 65 | – | – | – | – | – | – | – | – | – | – | – | – | –
FAKLAARLYRKALARQLGVAA [MMI-0300] | – | 72 | 81 | 31 | 88 | 44 | 3 | 255 | 82 | 65 | 110 | 90 | 161 | 26
HRRIKAWLKKIKALARQLGVAA (Mammalian) [MMI-0500] | – | 22 | 56 | – | 48 | 38 | 9 | 239 | 49 | 44 | 125 | 29 | 169 | 30
KAFAKLAARLYRKALARQLGVAA [MMI-0400] | – | 84 | 70 | 17 | 65 | 28 | 7 | 265 | 85 | 59 | – | 91 | 185 | 14
YARAAARQARAKALNRQLGVA (Mammalian) [MMI-0200] | – | 82 | 131 | 95 | 127 | 131 | 39 | 143 | 98 | 69 | 100 | 125 | – | 32
